Measured values: patent US20150005474A1

How the values were obtained:
[1] = biological target: TR5, non-glycosylated MUC1 peptide […]n with n=5; assay: ELISA, 10 µg/ml antibody; reference is TR1 (SEQ ID NO: 72)
[2] = biological target: glycosylated 30mer MUC1 peptide; assay: ELISA, 10 µg/ml antibody; reference is the non-glycosylated 30mer
[3] = biological target: glycosylated 30mer MUC1 peptide; assay: ELISA of Example 5.1; reference is the non-glycosylated 30mer

Chain of glycosylated 30mer MUC1 peptide (peptide, as listed by the source): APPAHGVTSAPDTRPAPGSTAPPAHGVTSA
Chain of TR5, non-glycosylated MUC1 peptide […]n with n=5 (peptide, as listed by the source): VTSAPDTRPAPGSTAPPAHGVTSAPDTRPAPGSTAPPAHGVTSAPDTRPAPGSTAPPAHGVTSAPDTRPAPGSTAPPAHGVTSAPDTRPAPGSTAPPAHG

Row | factor (ratio of the signal with TR5 peptide to that with TR1 peptide) [1] | factor (ratio of glycosylated/non-glycosylated peptide) [2] | factor (glycosylated against non-glycosylated peptide) [3] | Substance
1 | 1.1 | < 1.2 |  | C595 (antibody)
2 |  | < 1.2 |  | HMFG-1 (antibody)
3 | 2.1 | < 1.2 | 1.5 | SM3 (antibody)
